Experimental data as given in US20250277199, “NOVEL CRISPR-CAS NUCLEASES FROM METAGENOMES” (Brain Biotech AG, published 2025).

Molecular target: T1, BMC05 (uncultured bacterium (metagenome))
T1 chain: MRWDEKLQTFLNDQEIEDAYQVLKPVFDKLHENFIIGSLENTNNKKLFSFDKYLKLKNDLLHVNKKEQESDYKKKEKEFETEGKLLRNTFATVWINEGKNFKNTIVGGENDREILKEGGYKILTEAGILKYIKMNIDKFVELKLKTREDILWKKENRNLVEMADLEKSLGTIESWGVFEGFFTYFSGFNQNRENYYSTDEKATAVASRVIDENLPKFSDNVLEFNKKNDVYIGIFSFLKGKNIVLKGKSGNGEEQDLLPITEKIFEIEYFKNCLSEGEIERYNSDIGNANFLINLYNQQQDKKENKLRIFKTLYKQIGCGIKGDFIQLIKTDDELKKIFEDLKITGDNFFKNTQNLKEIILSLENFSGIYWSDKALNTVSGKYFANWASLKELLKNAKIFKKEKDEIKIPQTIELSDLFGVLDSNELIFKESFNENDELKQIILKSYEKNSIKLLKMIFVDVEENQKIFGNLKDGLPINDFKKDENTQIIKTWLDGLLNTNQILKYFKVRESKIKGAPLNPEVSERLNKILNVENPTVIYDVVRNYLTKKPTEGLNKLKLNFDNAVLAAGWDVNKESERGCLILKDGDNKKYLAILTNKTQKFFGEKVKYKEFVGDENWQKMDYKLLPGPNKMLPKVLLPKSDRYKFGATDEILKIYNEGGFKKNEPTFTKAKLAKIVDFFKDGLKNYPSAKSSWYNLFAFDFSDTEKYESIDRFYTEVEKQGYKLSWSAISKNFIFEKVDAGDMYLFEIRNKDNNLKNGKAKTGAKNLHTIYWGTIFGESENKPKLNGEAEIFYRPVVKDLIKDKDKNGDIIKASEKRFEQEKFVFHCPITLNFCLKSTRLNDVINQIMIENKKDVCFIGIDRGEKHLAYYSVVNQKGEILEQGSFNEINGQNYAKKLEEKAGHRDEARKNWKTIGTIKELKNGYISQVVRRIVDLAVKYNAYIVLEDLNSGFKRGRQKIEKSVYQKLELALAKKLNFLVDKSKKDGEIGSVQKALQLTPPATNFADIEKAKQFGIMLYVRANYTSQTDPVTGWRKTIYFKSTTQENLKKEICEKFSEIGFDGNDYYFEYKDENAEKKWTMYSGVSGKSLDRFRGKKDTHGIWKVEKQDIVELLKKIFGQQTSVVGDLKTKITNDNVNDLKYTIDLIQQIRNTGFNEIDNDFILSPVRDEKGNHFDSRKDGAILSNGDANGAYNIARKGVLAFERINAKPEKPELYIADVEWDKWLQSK
Assay: cell_activity; PAM not stated; E. coli depletion, 30 C
Summary of the method: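 E. coli carrying arabinose-induced (0.2%) BMC nuclease, grown at 30° C., made electrocompetent and electroporated with 50-100 ng plasmid carrying gRNA against malQ. Transformants plated on selective M9-glucose agar with kanamycin/ampicillin (± nourseothricin), and growth scored after 48 h at 30° C.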

B1: malQ gRNA (BMC stem-loop + 24 nt spacer) ; malQ protospacer (ssRNA ; dsDNA)
RNA: GAUUUCUACUAUUGUAGAUGUGGCGGUACGUUGAUGCAUCGCG
DNA 1: GTGGCGGTACGTTGATGCATCGCG
DNA 2: CGCGATGCATCAACGTACCGCCAC
  activity: > 99.9 % colony reduction
